{"source": "paper PMC10992505", "about": "“Customized exogenous ferredoxin functions as an efficient electron carrier” (Bioresources and Bioprocessing, 2021)", "molecules": {"B1": {"name": "Drosophila melanogaster Fdx2 (DmFdx2) (natural protein, UniProt Q8SZA8 30-152, looked up)", "chain": "STGLALKTKDVVNITFVRANGDKIKTSGKVGDSLLDVVVNNNVDLDGFGACEGTLTCSTCHLIFKTSDFEKLPDKPGDEELDMLDLAYELTDTSRLGCQITLSKDMEGLEVHVPSTINDARAA", "notes": "Drosophila melanogaster ferredoxin 2 (Fdx2), plant-type [2Fe-2S] ferredoxin; Carries a [2Fe-2S] cluster; Cloning into pET28a at NdeI would place the His6 tag at the N-terminus (surmised); also called free Fdx; plant-type Fdx; source: E. coli BL21(DE3), purified (Ni-NTA, Resource Q anion exchange)"}, "B2": {"name": "(Tepidiphilus thermophilus) (protein)", "chain": "VRTMEVAAVERPSEDIVVLHLTRPDRRPLPRWSPGAHIDIECGEPDRSRQYSLCSDPENRDAWRVAVQRDPASRGGSRWIHEEVRPGMLLRVRGPRNSFRLDEHAPRYLFLAGGIGITPIMTMAARAKELGTDYELHYSVRSRTSLIFVDELRQIHGDRLHVYVSEEGVRNDLAALIRRASAGTQIYACGPQRMLDTLERLIENRPEVTLRVEHFFGEPSHLDPAKERPFQVVLRNSGLTVEVPADKTLLEVLRAYNIEVQSDCEEGLCGTCEVSVVEGEVDHRDSVLTRAERRENRRMMCCCSRAKTERLVLDL"}, "B3": {"name": "KshA, Rieske-type oxygenase of 3-ketosteroid-9-hydroxylase from Rhodococcus erythropolis (enzyme)", "chain": "MALGTGPLTTTDASTQSGAGEEIREIEAAAPPARFARGWHCLGLSNTYRDGQPHQIEAFGTSLVVFADSKGDIKILDAYCRHMGGNLAHGTVKGDSIACPFHDWRWGGNGKCTAIPYARRVPPLAKTRAWTTLEKNGQLFVWHDPQGNPPPAEVTIPDIEGFGSDEWSDWSWNTLTIEGSHCREIVDNVVDMAHFFYVHYSFPKYFKNIFEGHVASQYMESVGREDIISGTNYGDPNAVLRSDASYFGPSYMIDWIKSEANGQIIETVLINCHYPISNNAFVLQYGAMVKKLPGMDDESTAAMAAQFTEGVEMGFLQDVEIWKNKAPIDNPLLSEEDGPVYQLRRWYNQFYTDVENVTEDMTKRFEFEIDTTRAVESWKREVAENVAARDAQALETTS"}}, "key": {"[1]": {"tested_on": "T1, TDO (TDO_R; toluene 2,3-dioxygenase reductase with TDO-Fdx)", "T1 construct": "gene todA", "settings": "electron acceptor not stated; MTDO, plant-type cluster; fusion numbering"}, "[2]": {"biological_target": "T2, PRF (CYP116B46 reductase domain, V465-L779) (Tepidiphilus thermophilus, UniProt A0A0K6ITW2, C736H/C766H, form not given)", "T2 construct": "gene Ga0061068_103196", "T2 sequence (A0A0K6ITW2 entry or part of it C736H/C766H, form open)": "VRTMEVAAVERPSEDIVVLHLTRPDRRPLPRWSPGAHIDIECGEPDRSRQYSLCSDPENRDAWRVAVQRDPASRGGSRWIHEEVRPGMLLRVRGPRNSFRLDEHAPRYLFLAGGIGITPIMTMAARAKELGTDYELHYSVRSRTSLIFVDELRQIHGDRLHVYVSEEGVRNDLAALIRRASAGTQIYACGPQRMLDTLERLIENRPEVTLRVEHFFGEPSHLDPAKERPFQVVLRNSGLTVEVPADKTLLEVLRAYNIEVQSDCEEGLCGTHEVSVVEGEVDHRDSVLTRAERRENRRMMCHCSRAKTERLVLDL", "assay": "NADH oxidation, absorbance […] nm", "assay_type": "biochemical"}, "[3]": {"biological_target": "PRF, reductase domain and Fdx (V465-L779) of Tepidiphilus thermophilus self-sufficient P450 CYP116B46 (Tepidiphilus thermophilus)", "assay": "ITC; 0.2 mM DmFdx2 in the syringe, 2 uL injections into 0.02 mM KshA or PRF in the cell; 20 mM HEPES pH 7.4, 25 °C; one-site binding model"}, "[4]": {"biological_target": "B3", "assay": "ITC; 0.2 mM DmFdx2 in the syringe, 2 uL injections into 0.02 mM KshA or PRF in the cell; 20 mM HEPES pH 7.4, 25 °C; one-site binding model", "settings": "both partners purified"}, "[5]": {"substrate": "NC(=O)C1=CN([C@@H]2O[C@H](COP(=O)(O)OP(=O)(O)OC[C@H]3O[C@@H](n4cnc5c(N)ncnc54)[C@H](O)[C@@H]3O)[C@@H](O)[C@H]2O)C=CC1", "assay": "purified protein", "assay_type": "biochemical, Tepidiphilus thermophilus"}, "[6]": {"biological_target": "B1", "assay": "ITC; 0.2 mM DmFdx2 in the syringe, 2 uL injections into 0.02 mM KshA or PRF in the cell; 20 mM HEPES pH 7.4, 25 °C; one-site binding model", "settings": "both partners purified"}}}
{"molecule": "NC(=O)C1=CN([C@@H]2O[C@H](COP(=O)(O)OP(=O)(O)OC[C@H]3O[C@@H](n4cnc5c(N)ncnc54)[C@H](O)[C@@H]3O)[C@@H](O)[C@H]2O)C=CC1", "note": "[NADH]", "values": [{"measurement": "Km", "setting": "[1]", "value": "63.5 ± 2.95", "unit": "µM"}, {"measurement": "Km", "setting": "[2]", "value": "63.1 ± 2.37", "unit": "µM"}]}
{"molecule": "B1", "values": [{"measurement": "Ka", "setting": "[3]", "value": "1.5e+07", "unit": "M⁻¹"}, {"measurement": "dH", "setting": "[3]", "value": -1.91, "unit": "kcal/mol"}, {"measurement": "stoichiometry N", "setting": "[3]", "value": 0.75}, {"measurement": "dH", "setting": "[4]", "value": "-1.43 ± 0.0311", "unit": "kcal/mol"}, {"measurement": "stoichiometry N", "setting": "[4]", "value": "0.4 ± 0.02"}]}
{"molecule": "B2", "values": [{"measurement": "Km", "setting": "[5]", "value": "39.11 ± 1.49", "unit": "µM"}, {"measurement": "kcat", "setting": "[5]", "value": "66.43 ± 0.34", "unit": "s⁻¹"}, {"measurement": "kcat/Km", "setting": "[5]", "value": "1.7e+06", "unit": "M⁻¹ s⁻¹"}]}
{"molecule": "B3", "values": [{"measurement": "Ka", "setting": "[6]", "value": "2.1e+07", "unit": "M⁻¹"}]}
